Source: patent US20090325290A1

How the values were obtained:
[1] = biological target: HLA-DR antigen on the surface of HLA-DR positive cells (tumor cell lines other than PRIESS and LG-2, normal B cells, or cell line not stated) (human); assay: cell-based or functional assay
[2] = biological target: HLA-DR on the human B-lymphoblastoid cell line LG-2 (human); assay: cell-based or functional assay
[3] = biological target: HLA-DR (allotype and form not stated); assay: not stated (Z. A. Nagy, unpublished)

Sequence of murine anti-HLA-DR antibody L243 (VH): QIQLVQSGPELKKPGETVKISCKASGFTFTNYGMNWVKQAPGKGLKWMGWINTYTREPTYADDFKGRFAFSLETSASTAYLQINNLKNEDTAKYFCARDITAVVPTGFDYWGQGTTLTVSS
Sequence of murine anti-HLA-DR antibody L243 (VL): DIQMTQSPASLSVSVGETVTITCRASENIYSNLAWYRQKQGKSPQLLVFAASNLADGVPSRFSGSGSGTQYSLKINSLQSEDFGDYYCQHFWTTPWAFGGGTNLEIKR

murine anti-HLA-DR antibody L243
% killing of ARH-77 cells (DR 12), 200 nM, 4 h [1]: 88%
% killing of BJAB cells (DR 12, 13), 200 nM, 4 h [1]: 53%
% killing of BONNA-12 cells, 200 nM, 4 h [1]: 92%
% killing of DOHH-2 cells (DR 1, 2), 200 nM, 4 h [1]: 29%
% killing of EOL-1 cells, 200 nM, 4 h [1]: 22%
% killing of GRANTA-519 cells (DR 2, 11), 200 nM, 4 h [1]: 83%
% killing of HC-1 cells, 200 nM, 4 h [1]: 88%
% killing of HD-MY-Z cells, 200 nM, 4 h [1]: 35%
% killing of HDLM-2 cells, 200 nM, 4 h [1]: 77%
% killing of KARPAS-299 cells (DR 1, 2), 200 nM, 4 h [1]: 78%
% killing of KARPAS-422 cells (DR 2, 4), 200 nM, 4 h [1]: 25%
% killing of KM-H2 cells, 200 nM, 4 h [1]: 81%
% killing of L1236 cells, 200 nM, 4 h [1]: 52%
% killing of L-363 cells, 200 nM, 4 h [1]: 6%
% killing of L-428 cells (DR 12), 200 nM, 4 h [1]: 82%
% killing of LP-1 cells, 200 nM, 4 h [1]: 12%
% killing of MHH-CALL-4 cells (DR 1, 2), 200 nM, 4 h [1]: 35%
% killing of MHH-PREB-1 cells, 200 nM, 4 h [1]: 3%
% killing of MN-60 cells (DR 10, 13), 200 nM, 4 h [1]: 46%
% killing of NALM-1 cells (DR 1, 4), 200 nM, 4 h [1]: 44%
% killing of RAJI cells (DR 10, 17), 200 nM, 4 h [1]: 69%
% killing of RPMI-8226 cells, 200 nM, 4 h [1]: 6%
% killing of SR-786 cells (DR 1, 2), 200 nM, 4 h [1]: 3%
% killing of LG-2 cells, 200 nM, 4 h [2]: 79%
Kd [3]: 10 nM
